{"source": "patent US20220204610A1", "about": "“PROTEIN BINDERS FOR IRHOM2” (NEW YORK SOCIETY FOR THE RELIEF OF THE RUPTURED AND …, priority 2019, published 2022)", "test_system": "LPS-induced release of endogenous TNFα from human THP-1 macrophage cells", "test": "ELISA-based TNFα release assay with purified antibody (Example 11)", "assay_type": "cell-based", "settings": "antibody at 10 μg/ml final; LPS 50 ng/ml, 2 hours", "experimental": "In the following study, ELISA-based TNFα release assays were performed to verify the inhibitory effects of the purified antibody 4H8-E3 of the invention on LPS-induced release of endogenous TNFα from human THP-1 macrophage cells.\nIn brief, on day 1, Nunc black MaxiSorp® 96-well plates (Thermo Fisher Scientific, USA) were coated overnight with 100 μl per well of mouse anti-human TNFα capture antibody (provided as part of the DuoSet ELISA kit) at 4 μg/ml TBS at 4° C. On day 2, the capture antibody solution was removed and MaxiSorp® plates were blocked with 300 μl per well of TBS, 1% BSA at room temperature for 3 hours. […] Using an infinite M1000 PRO (Tecan Group, Switzerland) microplate reader, the fluorescence of each well was collected at an excitation wavelength of 435 nm and an emission wavelength of 555 nm.", "data": [{"molecule": "4H8-E3: Mouse IgM monoclonal antibody against the human iRhom2 juxtamembrane domain adjacent to TMD1; HC VD SEQ ID NO 33, LC VD SEQ ID NO 40 (antibody, V domains shown, IgM constant regions; antibody sequence) VH: EVQLQQSGPELVKPGASVKISCKASGYTFTDYYMNWVKQSHGKSLEWIGDINPNNGGTSYNQKFKGKATLTVDKSSNTAYMEFRSLTSEDSAVYYCARRGYYGVDYWGQGTTLTVSS VL: NIVMTQSPKSMSMSVGERVTLNCKASENVGTYVSWYQQKPEQSPKLLIFGASNRYTGVPDRFIGSGFATDFTLTISSVQAEDLADYHCGQSYSYPYTFGGGTKLEIK", "values": [{"measurement": "inhibition of LPS-induced release of TNFα from THP-1 cells", "value": 62.6, "unit": "%"}]}]}
